In publication PMC8298264, “Function of cofactor Akirin2 in the regulation of gene expression in model human neutrophil-like HL60 cells” (Bioscience Reports, 2021):

B1: sp¦Q99986¦VRK1_HUMAN (protein, UniProt Q99986 1-396, looked up)
Serine/threonine-protein …: MPRVKAAQAGRQSSAKRHLAEQFAVGEIITDMAKKEWKVGLPIGQGGFGCIYLADMNSSESVGSDAPCVVKVEPSDNGPLFTELKFYQRAAKPEQIQKWIRTRKLKYLGVPKYWGSGLHDKNGKSYRFMIMDRFGSDLQKIYEANAKRFSRKTVLQLSLRILDILEYIHEHEYVHGDIKASNLLLNYKNPDQVYLVDYGLAYRYCPEGVHKEYKEDPKRCHDGTIEFTSIDAHNGVAPSRRGDLEILGYCMIQWLTGHLPWEDNLKDPKYVRDSKIRYRENIASLMDKCFPEKNKPGEIAKYMETVKLLDYTEKPLYENLRDILLQGLKAIGSKDDGKLDLSVVENGGLKAKTITKKRKKEIEESKEPGVEDTEWSNTQTEEAIQTRSRTRKRVQK
B2: sp¦P49916¦DNLI3_HUMAN (protein, UniProt P49916 43-1009, looked up)
DNA ligase 3: LLHGHPLFLRRKPVLSFQGSHLRSRATYLVFLPGLHVGLCSGPCEMAEQRFCVDYAKRGTAGCKKCKEKIVKGVCRIGKVVPNPFSESGGDMKEWYHIKCMFEKLERARATTKKIEDLTELEGWEELEDNEKEQITQHIADLSSKAAGTPKKKAVVQAKLTTTGQVTSPVKGASFVTSTNPRKFSGFSAKPNNSGEAPSSPTPKRSLSSSKCDPRHKDCLLREFRKLCAMVADNPSYNTKTQIIQDFLRKGSAGDGFHGDVYLTVKLLLPGVIKTVYNLNDKQIVKLFSRIFNCNPDDMARDLEQGDVSETIRVFFEQSKSFPPAAKSLLTIQEVDEFLLRLSKLTKEDEQQQALQDIASRCTANDLKCIIRLIKHDLKMNSGAKHVLDALDPNAYEAFKASRNLQDVVERVLHNAQEVEKEPGQRRALSVQASLMTPVQPMLAEACKSVEYAMKKCPNGMFSEIKYDGERVQVHKNGDHFSYFSRSLKPVLPHKVAHFKDYIPQAFPGGHSMILDSEVLLIDNKTGKPLPFGTLGVHKKAAFQDANVCLFVFDCIYFNDVSLMDRPLCERRKFLHDNMVEIPNRIMFSEMKRVTKALDLADMITRVIQEGLEGLVLKDVKGTYEPGKRHWLKVKKDYLNEGAMADTADLVVLGAFYGQGSKGGMMSIFLMGCYDPGSQKWCTVTKCAGGHDDATLARLQNELDMVKISKDPSKIPSWLKVNKIYYPDFIVPDPKKAAVWEITGAEFSKSEAHTADGISIRFPRCTRIRDDKDWKSATNLPQLKELYQLSKEKADFTVVAGDEGSSTTGGSSEENKGPSGSAVSRKAPSKPSASTKKAEGKLSNSNSKDGNMQTAKPSAMKVGEKLATKSSPVKVGEKRKAADETLCQTKVLLDIFTGVRLYLPPSTPDFSRLRRYFVAFDGDLVQEFDMTSATHVLGSRDKNPAAQQVSPEWIWACIRKRRLVAPC
B3: sp¦Q1KMD3¦HNRL2_HUMAN (protein, UniProt Q1KMD3 1-747, looked up)
Heterogeneous nuclear …: MEVKRLKVTELRSELQRRGLDSRGLKVDLAQRLQEALDAEMLEDEAGGGGAGPGGACKAEPRPVAASGGGPGGDEEEDEEEEEEDEEALLEDEDEEPPPAQALGQAAQPPPEPPEAAAMEAAAEPDASEKPAEATAGSGGVNGGEEQGLGKREEDEPEERSGDETPGSEVPGDKAAEEQGDDQDSEKSKPAGSDGERRGVKRQRDEKDEHGRAYYEFREEAYHSRSKSPLPPEEEAKDEEEDQTLVNLDTYTSDLHFQVSKDRYGGQPLFSEKFPTLWSGARSTYGVTKGKVCFEAKVTQNLPMKEGCTEVSLLRVGWSVDFSRPQLGEDEFSYGFDGRGLKAENGQFEEFGQTFGENDVIGCFANFETEEVELSFSKNGEDLGVAFWISKDSLADRALLPHVLCKNCVVELNFGQKEEPFFPPPEEFVFIHAVPVEERVRTAVPPKTIEECEVILMVGLPGSGKTQWALKYAKENPEKRYNVLGAETVLNQMRMKGLEEPEMDPKSRDLLVQQASQCLSKLVQIASRTKRNFILDQCNVYNSGQRRKLLLFKTFSRKVVVVVPNEEDWKKRLELRKEVEGDDVPESIMLEMKANFSLPEKCDYMDEVTYGELEKEEAQPIVTKYKEEARKLLPPSEKRTNRRNNRNKRNRQNRSRGQGYVGGQRRGYDNRAYGQQYWGQPGNRGGYRNFYDRYRGDYDRFYGRDYEYNRYRDYYRQYNRDWQSYYYHHPQDRDRYYRNYYGYQGYR
B4: sp¦P48449¦LSS_HUMAN (protein, UniProt P48449 2-732, looked up)
Lanosterol synthase: TEGTCLRRRGGPYKTEPATDLGRWRLNCERGRQTWTYLQDERAGREQTGLEAYALGLDTKNYFKDLPKAHTAFEGALNGMTFYVGLQAEDGHWTGDYGGPLFLLPGLLITCHVARIPLPAGYREEIVRYLRSVQLPDGGWGLHIEDKSTVFGTALNYVSLRILGVGPDDPDLVRARNILHKKGGAVAIPSWGKFWLAVLNVYSWEGLNTLFPEMWLFPDWAPAHPSTLWCHCRQVYLPMSYCYAVRLSAAEDPLVQSLRQELYVEDFASIDWLAQRNNVAPDELYTPHSWLLRVVYALLNLYEHHHSAHLRQRAVQKLYEHIVADDRFTKSISIGPISKTINMLVRWYVDGPASTAFQEHVSRIPDYLWMGLDGMKMQGTNGSQIWDTAFAIQALLEAGGHHRPEFSSCLQKAHEFLRLSQVPDNPPDYQKYYRQMRKGGFSFSTLDCGWIVSDCTAEALKAVLLLQEKCPHVTEHIPRERLCDAVAVLLNMRNPDGGFATYETKRGGHLLELLNPSEVFGDIMIDYTYVECTSAVMQALKYFHKRFPEHRAAEIRETLTQGLEFCRRQQRADGSWEGSWGVCFTYGTWFGLEAFACMGQTYRDGTACAEVSRACDFLLSRQMADGGWGEDFESCEERRYLQSAQSQIHNTCWAMMGLMAVRHPDIEAQERGVRCLLEKQLPNGDWPQENIAGVFNKSCAISYTSYRNIFPIWALGRFSQLYPERALAGHP
B5: sp¦Q6RFH5¦WDR74_HUMAN (protein, UniProt Q6RFH5 1-385, looked up)
WD repeat-containing protein …: MAAAAARWNHVWVGTETGILKGVNLQRKQAANFTAGGQPRREEAVSALCWGTGGETQMLVGCADRTVKHFSTEDGIFQGQRHCPGGEGMFRGLAQADGTLITCVDSGILRVWHDKDKDTSSDPLLELRVGPGVCRMRQDPAHPHVVATGGKENALKIWDLQGSEEPVFRAKNVRNDWLDLRVPIWDQDIQFLPGSQKLVTCTGYHQVRVYDPASPQRRPVLETTYGEYPLTAMTLTPGGNSVIVGNTHGQLAEIDLRQGRLLGCLKGLAGSVRGLQCHPSKPLLASCGLDRVLRIHRIQNPRGLEHKVYLKSQLNCLLLSGRDNWEDEPQEPQEPNKVPLEDTETDELWASLEAAAKRKLSGLEQPQGALQTRRRKKKRPGSTSP
B6: sp¦P36957¦ODO2_HUMAN (protein, UniProt P36957 68-453, looked up)
Dihydrolipoyllysine-residue …: DDLVTVKTPAFAESVTEGDVRWEKAVGDTVAEDEVVCEIETDKTSVQVPSPANGVIEALLVPDGGKVEGGTPLFTLRKTGAAPAKAKPAEAPAAAAPKAEPTAAAVPPPAAPIPTQMPPVPSPSQPPSGKPVSAVKPTVAPPLAEPGAGKGLRSEHREKMNRMRQRIAQRLKEAQNTCAMLTTFNEIDMSNIQEMRARHKEAFLKKHNLKLGFMSAFVKASAFALQEQPVVNAVIDDTTKEVVYRDYIDISVAVATPRGLVVPVIRNVEAMNFADIERTITELGEKARKNELAIEDMDGGTFTISNGGVFGSLFGTPIINPPQSAILGMHGIFDRPVAIGGKVEVRPMMYVALTYDHRLIDGREAVTFLRKIKAAVEDPRVLLLDL
B7: sp¦P24752¦THIL_HUMAN (protein, UniProt P24752 34-427, looked up)
Acetyl-CoA acetyltransferase, …: VSKPTLKEVVIVSATRTPIGSFLGSLSLLPATKLGSIAIQGAIEKAGIPKEEVKEAYMGNVLQGGEGQAPTRQAVLGAGLPISTPCTTINKVCASGMKAIMMASQSLMCGHQDVMVAGGMESMSNVPYVMNRGSTPYGGVKLEDLIVKDGLTDVYNKIHMGSCAENTAKKLNIARNEQDAYAINSYTRSKAAWEAGKFGNEVIPVTVTVKGQPDVVVKEDEEYKRVDFSKVPKLKTVFQKENGTVTAANASTLNDGAAALVLMTADAAKRLNVTPLARIVAFADAAVEPIDFPIAPVYAASMVLKDVGLKKEDIAMWEVNEAFSLVVLANIKMLEIDPQKVNINGGAVSLGHPIGMSGARIVGHLTHALKQGEYGLASICNGGGGASAMLIQKL
B8: sp¦P00966¦ASSY_HUMAN (protein, UniProt P00966 1-412, looked up)
Argininosuccinate synthase: MSSKGSVVLAYSGGLDTSCILVWLKEQGYDVIAYLANIGQKEDFEEARKKALKLGAKKVFIEDVSREFVEEFIWPAIQSSALYEDRYLLGTSLARPCIARKQVEIAQREGAKYVSHGATGKGNDQVRFELSCYSLAPQIKVIAPWRMPEFYNRFKGRNDLMEYAKQHGIPIPVTPKNPWSMDENLMHISYEAGILENPKNQAPPGLYTKTQDPAKAPNTPDILEIEFKKGVPVKVTNVKDGTTHQTSLELFMYLNEVAGKHGVGRIDIVENRFIGMKSRGIYETPAGTILYHAHLDIEAFTMDREVRKIKQGLGLKFAELVYTGFWHSPECEFVRHCIAKSQERVEGKVQVSVLKGQVYILGRESPLSLYNEELVSMNVQGDYEPTDATGFININSLRLKEYHRLQSKVTAK
B9: sp¦Q15758¦AAAT_HUMAN (protein, UniProt Q15758 1-541, looked up)
Neutral amino acid …: MVADPPRDSKGLAAAEPTANGGLALASIEDQGAAAGGYCGSRDQVRRCLRANLLVLLTVVAVVAGVALGLGVSGAGGALALGPERLSAFVFPGELLLRLLRMIILPLVVCSLIGGAASLDPGALGRLGAWALLFFLVTTLLASALGVGLALALQPGAASAAINASVGAAGSAENAPSKEVLDSFLDLARNIFPSNLVSAAFRSYSTTYEERNITGTRVKVPVGQEVEGMNILGLVVFAIVFGVALRKLGPEGELLIRFFNSFNEATMVLVSWIMWYAPVGIMFLVAGKIVEMEDVGLLFARLGKYILCCLLGHAIHGLLVLPLIYFLFTRKNPYRFLWGIVTPLATAFGTSSSSATLPLMMKCVEENNGVAKHISRFILPIGATVNMDGAALFQCVAAVFIAQLSQQSLDFVKIITILVTATASSVGAAGIPAGGVLTLAIILEAVNLPVDHISLILAVDWLVDRSCTVLNVEGDALGAGLLQNYVDRTESRSTEPELIQVKSELPLDPLPVPTEEGNPLLKHYRGPAGDATVASEKESVM

Test system: human HL60 cells
Test: SWATH-MS proteomics, differential protein representation, akirin2 KO vs WT HL60 cells
Format: cell-based
Details: SWATH-MS, akirin2 KO vs WT HL60 cells, under-represented in KO
Procedure, shortened: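 First, proteins from wild-type and knockout cells are digested with trypsin by FASP. Next, pooled IDA runs generate a reference ion library. Then six samples of 5 µg each are acquired by data-independent SWATH, and protein areas are normalized to the summed area of all detected proteins.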

First: B1
Second: B2
The “Fold Change” value of the first is higher: 0.7448 for the first, 0.7417 for the second.

Going from B3 to B4, the “Fold Change” value falls from 0.7447 to 0.7416.

B1 and B2 are within 0.2 log units of each other in “Log (Fold Change)” value: -0.128 for the first, -0.1297 for the second.

B3 and B4 are within 0.2 log units of each other in “Log (Fold Change)” value: -0.128 for the first, -0.1298 for the second.

Same assay, conditions: SWATH-MS, akirin2 KO vs WT HL60 cells; sheet "Under-represented in KO"

First: B5
Second: B6
The “Fold Change” value of the first is lower: 0.7453 for the first, 0.7478 for the second.

B7 was tested, and the “Fold Change” value was 0.7481.

B5 and B6 are within 0.2 log units of each other in “Log (Fold Change)” value: -0.1277 for the first, -0.1262 for the second.

B7 was tested, and the “Log (Fold Change)” value was -0.126.

Same assay, conditions: akirin2 KO vs WT HL60 cells; sheet "Under-represented in KO"

Going from B8 to B9, the “Fold Change” value falls from 0.3334 to 0.3333.

B8 and B9 are within 0.2 log units of each other in “Log (Fold Change)” value: -0.477 for the first, -0.4771 for the second.
